Laboratory results taken from patent US20100183625A1, “Treatment of Mucositis with Kallikrein Inhibitors” (Dyax Corp., priority 2009, published 2010).
Read-outs that look alike come from different tables or passages of the source.

What was measured:
[1] = molecular target: T1, human plasma kallikrein (human pKal) (Homo sapiens, UniProt P03952); assay: Ki,app against human pKal by steady state enzyme kinetics (in vitro protease cleavage assay, Pro-Phe-Arg-aminomethylcoumarin substrate); assay type: biochemical
T1 construct: two disulfide linked polypeptides; a heavy chain of approximately 52 kDa and a catalytic domain of approximately 34 kDa; host or cells: human plasma
Description: The inhibition constant (Ki) provides a measure of inhibitor potency; it is the concentration of inhibitor required to reduce enzyme activity by half and is not dependent on enzyme or substrate concentrations. The apparent Ki (Ki,app) is obtained at different substrate concentrations by measuring the inhibitory effect of different concentrations of inhibitor (e.g., inhibitory binding protein) on the extent of the reaction (e.g., enzyme activity); fitting the change in pseudo-first order rate constant as a function of inhibitor concentration to the Morrison equation (Equation 1) yields an estimate of the apparent Ki value. The Ki is obtained from the y-intercept extracted from a linear regression analysis of a plot of Ki,app versus substrate concentration.
Where v=measured velocity; v0=velocity in the absence of inhibitor; Ki,app=apparent inhibition constant; I=total inhibitor concentration; and E=total enzyme concentration.
The sequence of human plasma kallikrein that was used in selections and subsequent screening of binding proteins is shown below (accession number NP_000883.2). The human plasma kallikrein (86 kDa) that was used was purified from human plasma and activated with factor XIIa by a commercial vendor. Factor XIIa activates prekallikrein by cleaving the polypeptide sequence at a single site (between Arg371-Ile372, cleavage site marked by “/” in the sequence below) to generate active plasma kallikrein, which then consists of two disulfide linked polypeptides; a heavy chain of approximately 52 kDa and a catalytic domain of approximately 34 kDa [Colman and Schmaier, (1997) “Contact System: A Vascular Biology Modulator With Anticoagulant, Profibrinolytic, Antiadhesive, and Proinflammatory Attributes” Blood, 90, 3819-3843]
These antibodies were produced as Fab fragments in small scale (˜20 μg) and tested for inhibition against human pKal in an in vitro protease cleavage assay using Pro-Phe-Arg-aminomethylcoumarin as the synthetic peptide substrate. […] Five antibodies were then expressed in 293T cells and purified by protein A sepharose chromatography. The antibodies were analyzed by SDS-PAGE to determine which of the inhibitory mutants are not cleaved by the host cell protease(s) (data not shown).

mouse pKal = molecular target: T2, mouse pKal (Mus musculus, UniProt P26262); assay: Ki,app against mouse pKal; assay type: biochemical; conditions: mouse; IgG; Table 14; read-out: < nM Ki, app against rodent pKal
T2 construct: active plasma kallikrein (pkal) has the single polypeptide chain cleaved at a single position
Procedure: (§1) Fourth, antibodies were tested for their ability to inhibit pKal from other species, besides human, where the amino acid sequence of pKal has been determined in order to identify amino acids that may account for the differences in inhibition.
Antibodies that inhibit the activity of pKal either bind near the active site and preclude substrate interactions (competitive inhibitors) or that bind away from the active site and induce allosteric changes in the structure of the active site (noncompetitive inhibitors).

rat pKal = molecular target: T3, rat pKal (Rattus norvegicus, UniProt P14272); assay: Ki,app against rat pKal; assay type: biochemical; conditions: IgG, Table 14, read-out: < nM Ki, app against rodent pKal
T3 construct: active plasma kallikrein (pkal) has the single polypeptide chain cleaved at a single position
Procedure: as §1

prekallikrein = prekallikrein (Homo sapiens, UniProt P03952); assay: Surface plasmon resonance (SPR) assay for binding to prekallikrein; conditions: IgG; Table 14
Procedure: Antibodies that bound prekallikrein may be rendered inaccessible towards active plasma kallikrein inhibition and could substantially increase the in vivo dose required for efficacy. […] Specifically, human IgGs (X81-B01, M162-A04 (R84-H05); M160-G12 (R84-D02); and M142-H08) were captured on a CM5 chip using an anti-human Fc surface and 100 nM of plasma kallikrein or 100 nM or 500 nM prekallikrein. The prekallikrein was treated with aprotinin-sepharose to remove active plasma kallikrein.

[2] = test system: fXIa, plasmin, and trypsin; assay: Specificity with respect to other serine proteases; assay type: biochemical; conditions: IgG; Table 14
bradykinin generation = assay: Inhibition of bradykinin generation; assay type: biochemical; conditions: IgG; Table 14
pKal [3] = molecular target: T4, pKal (Homo sapiens, UniProt P03952); assay: Inhibition of pKal in presence of prekallikrein; assay type: biochemical; conditions: IgG; Table 14
T4 construct: two disulfide linked polypeptides; a heavy chain of approximately 52 kDa and a catalytic domain of approximately 34 kDa; host or cells: human plasma

pKal [4] = molecular target: T4, pKal; assay: Competition for binding with aprotinin; conditions: IgG; Table 14
Description: The region of pKal bound by selected anti-pKal antibodies was investigated using several methods. First, competition assays were used to determine whether the antibodies competed for binding to pKal with known active site-directed inhibitors. Second, antibodies were grouped according to whether they were inhibitors or just binders to pKal. Third, epitopes were investigated using synthetic peptides and peptidic structures based on the sequence and 3-dimensional structure of pKal. These peptidic structures are called “CLIPS” (Chemically Linked Peptides on Scaffolds) and the testing was performed by a fee for service company called Pepscan.

pKal [5] = molecular target: T4, pKal; assay: BIACORE SPR competition with EPI-KAL2 for binding pKal; conditions: IgG captured on chip, pKal 100 nM, 1 μM EPI-KAL2
Procedure: (§2) FIG. 7A depicts the EPI-KAL2 competition for X81-B01 binding pKal. X81-B01 (IgG) was captured on an anti-human Fc fragment specific surface of a CM5 BIACORE® chip. pKal (100 nM) was flowed over the surface in the presence (lower sensorgram in the figure) or absence of 1 μM EPI-KAL2 (upper sensorgram in the figure).
as §2, with “7B” for “7A”, “X67-D03” for “X81-B01”, “Biacore” for “BIACORE®”
Using a BIACORE® SPR assay antibodies of interest were tested for competion with a known active site inhibitor of pKal. EPI-KAL2 is potent (Ki,app=0.1 nM) active site inhibitor of pKal and a Kunitz domain inhibitor based on the first domain of tissue factor pathway inhibitor (Markland (1996) Iterative optimization of high-affinity protease inhibitors using phage display. 2. Plasma kallikrein and thrombin, Biochemistry 35(24):8058-67). Kunitz domains are known active site inhibitors of serine proteases, such as pKal.
As shown in FIGS. 7A-7B, the antibodies X81-B01 and X67-D03 were competed for binding to pKal in the presence or EPI-KAL2.

[6] = test system: pKal from different species; assay: Kallikrein activity in activated citrated plasma of different species; assay type: biochemical; conditions: all the species except for pig
Description: (§3) All available sequence of pKal were obtained from public databases and aligned using ClustalW and regions were highlighted based on solvent accessibility, contact with an active site Kunitz inhibitor, and those peptides identified by CLIPS analysis (FIGS. 9A-9C). Citrated plasma from each of these species was obtained and activated using a commercially available prekallikrein activator (from Enzyme Research Laboratories) according to the instructions of the manufacturer. Kallikrein activity was then measured in each of the samples in the presence or absence of […]-B01.

pig pKal = assay: Kallikrein activity in activated citrated plasma, pig; assay type: biochemical
Description: as §3

frog pKal = assay: Kallikrein activity in activated citrated plasma, frog; assay type: biochemical
Description: as §3

[7] = molecular target: T1, human plasma kallikrein (human pKal); assay: Ki,app against human pKal by steady state enzyme kinetics (in vitro protease cleavage assay, Pro-Phe-Arg-aminomethylcoumarin substrate); assay type: biochemical; conditions: IgG

T1 sequence (P03952 391-638 limits assumed): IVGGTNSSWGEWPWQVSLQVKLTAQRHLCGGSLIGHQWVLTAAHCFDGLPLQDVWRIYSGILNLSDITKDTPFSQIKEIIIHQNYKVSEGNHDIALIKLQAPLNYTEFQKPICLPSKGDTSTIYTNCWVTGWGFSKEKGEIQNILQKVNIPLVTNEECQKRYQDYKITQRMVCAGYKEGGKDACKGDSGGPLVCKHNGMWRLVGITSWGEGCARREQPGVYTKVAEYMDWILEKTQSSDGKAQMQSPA
T1 sequence (P03952 20-390 partner limits assumed): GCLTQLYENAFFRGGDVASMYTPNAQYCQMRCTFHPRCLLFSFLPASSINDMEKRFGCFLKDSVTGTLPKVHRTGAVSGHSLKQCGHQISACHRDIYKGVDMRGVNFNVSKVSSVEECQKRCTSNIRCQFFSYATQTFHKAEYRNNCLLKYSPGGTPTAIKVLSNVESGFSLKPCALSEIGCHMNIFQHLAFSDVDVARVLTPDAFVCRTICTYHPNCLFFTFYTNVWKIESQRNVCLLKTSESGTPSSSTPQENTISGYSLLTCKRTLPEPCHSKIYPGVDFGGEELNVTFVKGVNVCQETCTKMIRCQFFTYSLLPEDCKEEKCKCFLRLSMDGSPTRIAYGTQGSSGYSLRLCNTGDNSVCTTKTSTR
T4 sequence (P03952 391-638 limits assumed): as the sequence (P03952 391-638 limits assumed) above
T4 sequence (P03952 20-390 partner limits assumed): as the sequence (P03952 20-390 partner limits assumed) above
Sequence of pig pKal (as listed by the source): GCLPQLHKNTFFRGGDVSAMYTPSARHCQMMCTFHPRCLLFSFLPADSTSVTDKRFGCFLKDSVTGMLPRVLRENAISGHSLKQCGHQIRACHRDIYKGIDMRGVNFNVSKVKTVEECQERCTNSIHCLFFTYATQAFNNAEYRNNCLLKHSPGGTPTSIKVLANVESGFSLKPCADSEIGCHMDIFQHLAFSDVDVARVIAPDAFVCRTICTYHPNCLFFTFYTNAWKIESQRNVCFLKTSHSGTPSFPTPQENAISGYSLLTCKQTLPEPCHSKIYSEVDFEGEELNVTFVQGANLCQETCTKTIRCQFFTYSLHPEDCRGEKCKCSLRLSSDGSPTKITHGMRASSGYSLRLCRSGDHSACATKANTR
Sequence of pig pKal (as listed by the source): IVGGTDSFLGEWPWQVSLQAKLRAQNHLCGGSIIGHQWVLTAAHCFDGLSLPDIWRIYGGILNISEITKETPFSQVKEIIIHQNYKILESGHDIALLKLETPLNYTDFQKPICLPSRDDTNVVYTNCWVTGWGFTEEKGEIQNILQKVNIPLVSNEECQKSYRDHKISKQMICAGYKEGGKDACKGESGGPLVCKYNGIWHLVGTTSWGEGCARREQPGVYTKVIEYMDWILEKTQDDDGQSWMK
T3 sequence (P14272 391-638 limits assumed): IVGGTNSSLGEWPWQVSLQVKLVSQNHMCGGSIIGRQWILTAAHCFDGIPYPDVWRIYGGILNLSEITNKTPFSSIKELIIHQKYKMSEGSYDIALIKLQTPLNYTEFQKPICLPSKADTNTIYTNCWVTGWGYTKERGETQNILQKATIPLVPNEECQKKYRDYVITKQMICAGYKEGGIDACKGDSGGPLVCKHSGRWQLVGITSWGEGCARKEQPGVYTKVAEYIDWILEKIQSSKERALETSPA
T3 sequence (P14272 20-390 partner limits assumed): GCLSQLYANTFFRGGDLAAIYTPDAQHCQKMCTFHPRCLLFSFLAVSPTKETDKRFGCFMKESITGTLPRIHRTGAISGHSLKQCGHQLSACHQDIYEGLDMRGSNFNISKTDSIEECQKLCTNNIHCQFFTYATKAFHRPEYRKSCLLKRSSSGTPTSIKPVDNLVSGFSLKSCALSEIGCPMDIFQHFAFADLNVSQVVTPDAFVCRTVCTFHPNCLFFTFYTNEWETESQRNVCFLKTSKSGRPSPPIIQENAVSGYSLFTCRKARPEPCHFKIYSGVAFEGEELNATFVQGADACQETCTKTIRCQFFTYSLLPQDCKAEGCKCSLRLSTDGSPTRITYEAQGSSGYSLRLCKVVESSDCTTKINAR
T2 sequence (P26262 391-638 limits assumed): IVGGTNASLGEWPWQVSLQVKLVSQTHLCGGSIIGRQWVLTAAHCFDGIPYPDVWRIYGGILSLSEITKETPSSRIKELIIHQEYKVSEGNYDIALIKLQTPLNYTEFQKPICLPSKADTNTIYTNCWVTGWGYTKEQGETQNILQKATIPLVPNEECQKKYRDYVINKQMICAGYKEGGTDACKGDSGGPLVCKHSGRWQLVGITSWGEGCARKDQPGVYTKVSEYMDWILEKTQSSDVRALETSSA
T2 sequence (P26262 20-390 partner limits assumed): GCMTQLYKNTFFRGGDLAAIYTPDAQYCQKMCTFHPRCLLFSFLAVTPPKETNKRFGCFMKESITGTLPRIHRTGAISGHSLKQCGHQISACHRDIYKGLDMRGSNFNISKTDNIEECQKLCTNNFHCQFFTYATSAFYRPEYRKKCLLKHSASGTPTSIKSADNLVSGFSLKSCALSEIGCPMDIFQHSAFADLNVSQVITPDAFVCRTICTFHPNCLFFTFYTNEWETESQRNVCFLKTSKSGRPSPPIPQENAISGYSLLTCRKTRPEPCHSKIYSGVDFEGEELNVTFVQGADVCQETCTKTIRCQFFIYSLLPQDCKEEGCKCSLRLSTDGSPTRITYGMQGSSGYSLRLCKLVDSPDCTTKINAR
Sequence of prekallikrein (P03952 20-638): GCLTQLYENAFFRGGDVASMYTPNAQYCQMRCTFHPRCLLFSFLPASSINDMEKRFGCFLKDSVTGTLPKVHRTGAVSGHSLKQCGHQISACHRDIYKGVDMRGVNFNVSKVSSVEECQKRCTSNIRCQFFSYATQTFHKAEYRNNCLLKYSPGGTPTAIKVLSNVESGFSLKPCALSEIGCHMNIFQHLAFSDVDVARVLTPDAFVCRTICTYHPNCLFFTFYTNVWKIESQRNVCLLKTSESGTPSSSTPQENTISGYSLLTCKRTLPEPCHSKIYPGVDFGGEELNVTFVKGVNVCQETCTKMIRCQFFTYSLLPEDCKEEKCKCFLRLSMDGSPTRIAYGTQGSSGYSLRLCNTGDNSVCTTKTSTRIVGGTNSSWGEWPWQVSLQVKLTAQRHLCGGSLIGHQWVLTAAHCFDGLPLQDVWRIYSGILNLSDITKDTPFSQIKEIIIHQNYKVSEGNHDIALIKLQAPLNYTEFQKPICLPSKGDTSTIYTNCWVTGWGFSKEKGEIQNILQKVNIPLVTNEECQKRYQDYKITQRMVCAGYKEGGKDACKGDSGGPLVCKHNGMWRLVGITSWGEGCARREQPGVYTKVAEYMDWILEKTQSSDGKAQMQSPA

B1: X81-B01: codon optimized and germlined version of X63-G06 as a full length human IgG produced in CHO cells (antibody, chains of the INN, looked up, V domains shown)
VH: EVQLLESGGGLVQPGGSLRLSCAASGFTFSHYIMMWVRQAPGKGLEWVSGIYSSGGITVYADSVKGRFTISRDNSKNTLYLQMNSLRAEDTAVYYCAYRRIGVPRRDEFDIWGQGTMVTVSS
VL: DIQMTQSPSTLSASVGDRVTITCRASQSISSWLAWYQQKPGKAPKLLIYKASTLESGVPSRFSGSGSGTEFTLTISSLQPDDFATYYCQQYNTYWTFGQGTKVEIK
modifications: IgG
notes: codon optimized and germlined version of X63-G06 as a full length human IgG produced in CHO cells
In the case of B1, the Ki ([1]; Table 6, read-out: Human pKal (Ki, app nM)) is reported as 0.2 nM, the Ki ([1]; Table 15, read-out: human Ki, app) is reported as 0.1 nM and the Ki (mouse pKal) is reported as 0.011 nM. For the same molecule, the Ki (rat pKal) was 0.14 nM, the “Does not bind prekallikrein” value (prekallikrein) was “no” and the “Specific inhibitor with respect to fXIa, plasmin, and trypsin” value [2] was “yes”. The Inhibits bradykinin generation (bradykinin generation) was “yes”, the “Inhibits pKal in presence of prekallikrein” value (pKal [3]) was “yes” and the “Competition for binding with aprotinin” value (pKal [4]) was “yes”. For the same molecule, the “competition for binding to pKal in the presence of EPI-KAL2” value (pKal [5]) was “competed”, the “inhibition of pKal from different species” value [6] was “inhibited” and the “inhibition of pig pKal” value (pig pKal) was “lack of inhibition”. The “inhibition of frog pKal” value (frog pKal) was “inhibited”, the Ki ([7]; Table 11, read-out: Ki, app) was 0.2 nM and the Ki ([7]; Table 14, read-out: < nM Ki, app against human pKal) was 0.2 nM. It also gave a Ki ([7]; pKal, germlined and sequence optimized for CHO cell expression, read-out: Ki,app) of roughly 0.2 nM.
